Measurements from a protein production outcome set (Wang et al. 2014).

Experiment: label from the status in PepcDB records
In the case of “MAPVKLYMVEVIDKKEIAANERRSRENDVTGPEITHYYQVTFRLTTDDRKDLVLNIDKSSYQNIEPEMKGRLFMQGSRFVQFETDVPIDEQKLEHHHHHH”, the protein production is reported as “not failed”. In the case of “MAPVLENRRARHDYEILETYEAGIALKGTEVKSLRAGKVDFTGSFARFEDGELYLENLYIAPYEKGSYANVDPRRKRKLLLHKHELRRLLGKVEQKGLTLVPLKIYFNERGYAKVLLGLARGKKAYEKRREDKKEAVRRALEEL”, the protein production is reported as “not failed”. With “MAQARCGGELLGLRAVLCVPPCPMPRLLPLTLLLLAAAAHAQSAAPLTIEQAMADPDWIGPSVDQAWWQWDGKQVQYLLKRAGSPVRDTYRQSTAGGTAERVADTARAGLDAANPSYDATRQRMLFARNGDIFLRDLRSGALTQLTRSNEIESRPQFASDGGAIWRAGNNWYHWRADGGTAQVAVVKAERDPDAAPKPDVLREHQLATLATLRRDKEQRDALRTQDDAWRRADATRAAAPVYLGDEVEIVDSALSPDGRHLLVVTQATNAEEGQAGKMPKYVTESGYEEFQEVRTRVGRNASVAHALWLVDVSAGTAKSLSFDPLPGIATDPLAALRKAAKRDALKGNRAVRVESNGDGSGPAVHWSDDGRNVAVEIRAVDNKDRWIASVDLDNAKLQPRHRLSDSAWINWDFNDFGWLPDNRTLWLLSEESGYSQLYTMEGNSKPRQRTRGKWEVSMPVPSADGSGMFFLCNQKWPGDYEVCKLDLRNDQLTEVTALNGVEGFSLSPNGQQLLVSYSGSYLPTQLAVVPATGGQATVLTDTRTPAFKAQPWIAPQYVQVPSKHGAGTVWGKYYGPTTPEPGKQYPIVMFVHGAGYLQNVSERYTPYFREQMFHNLLVQQGYIVLDLDYRASRGYGRDWRTAIYRNMGHTELEDYLDGLDWLVATKQGDRARAGIYGGSYGGFMTYMALFRSPGTFKAGAALRPVGDWMQYNHEYTSNILNTPELDPEAYKTSSPINYAEGLRDHLLIAHGMIDDNVFFKDSVDMTQKLMELHKDNWQLALYPLERHGFTRADSWLDEYKRILKLFNAQVKP” the protein production was “failed”. In the case of “MAQDIIDGINPTRMELLSLKNRTKLAVKGHGLLKEKRDALIKEFFDILDRVKGVREAAERSLKEANEALLEAQIAMGDLAVRKASLSVKESIDVDIKSRSVMGVSVPVTNVKMEERSIIDRGYSFSDTTIQLDEAAKKFEESIKFLIELGEVEKTIFLLAEEIEATKRRVNALEHIMIPRFENTEKYIDMRLQEMERENFVRLKMIRSTIEKKDNEAKEAAIEEEAAEVEA”, the protein production is reported as “failed”. For “MAQFAVIGLGSFGATVATELTKLNHDVIGIDSVKRNVEDLSDQLTHAVIADASDEHVLEELNIQNCETVVVAIGEDIEASILCVLHLKNMGVPQIWVKAKTKAHHMILSHLHVDKIIHPEEDMGVRIAQALNYPMVSRYMALDNDHFIVKVEIPKHLNGVHLLGLINEMSDVKTILLKRGKDIIYEPDPTCPVQSKDILILEGHIDQLKKLSRRFLPHEKTKN”, the protein production was “failed”. For “MAQHFLLTQKAKTLSAFEIANISEAEAFDLLCEARWGSKENVVCSKCGVQHKAYFISIRKQWRCKHCHHTFSVTSGTIFANHKLPLKTYLYILIRFVNAVKGVSALEISRDAKINYRTAFVLCHKLRKALLESRDMQPLSGEVDMGGTYIHPAPRKANKKADRIDYRLKENQNPNKRCVVVAREHFSADEKAENSLYRGAKRSHVFVTYSETQSVVKNFAHAYIEKNSRINTDENTAYESLLLDYDLRTVNHKDEYRSDFGVTNNQAESFFSRFKRMYYGHVHKMSNTYLLNYANEIAYREDNRRKPNGWQFHDILGKCLETTNEQNEWCGYWQRKIFHQEVIWQ”, the protein production was “failed”. In the case of “MAQKENNIIPMIFDEAFYRKMATQKWRQQDYKKAAEYYEKVLELSPKDFDIQQHYAQCLVKLNIGKKAERLFYENIVKDFHVAESFYELSQLNIELNEPNKAFLFGINYVILSEDKDFREMLEKTFEVAYTNEQKIELEAQLFSTQLLFQFLFSQGRLEEARTYILNQSYEIQQHRVIRNLLAMCYLYLGEYDSAKAMFEELLKEDNSDVHALCHYTLLLYNKKETEKYQKYLKILNKVVPLNDDETFKLGIVLSYLKQYRASQNLLYPLYKKGKFVSIQMYNALSFNFYYLGNKDESIEMWNKLTQISKVDVGYAPWVIEESKTVFESRVLPLLLDDNNHYRLYGIFLLHQLNGKEILMTEDIWSILESMNDYEKLYLTYLVQGLTLNKLDFIHRGMQRLYNFKKFKYNTSLFTDWINQAEMIISENVDLVDVDRYVAAFVYLSYRRSSQPLTKRQLMDDFNVSRYKLNKAIEFILSI”, the protein production is reported as “failed”. For “MAQRERKAGVVKRDKADKWNHVETARYFRDLQENEVRTMHYLGLAYVVLSRRPNLQLKVPLSTQNYEDGAIVGAGERGGYALQLLFTCAANYPLARPLVEIVEKRNVSDAFEQVLRKEIDLILEEHLGLQMIVPVVTRLQITLNTEMKRQRF”, the protein production was “failed”. In the case of “MAQRKNAKSSGNSSSSGSGSGSTSAGSSSPGARRETKHGGHKNGRKGGLSGTSFFTWFMVIALLGVWTSVAVVWFDLVDYEEVLGKLGIYDADGDGDFDVDDAKVLLGLKERSTSEPAVPPEEAEPHTEPEEQVPVEAEPQNIEDEAKEQIQSLLHEMVHAEHVEGEDLQQEDGPTGEPQQEDDEFLMATDVDDRFETLEPEVSHEETEHSYHVEETVSQDCNQDMEEMMSEQENPDSSEPVVEDERLHHDTDDVTYQVYEEQAVYEPLENEGIEITEVTAPPEDNPVEDSQVIVEEVSIFPVEEQQEVPPETNRKTDDPEQKAKVKKKKPKLLNKFDKTIKAELDAAEKLRKRGKIEEAVNAFKELVRKYPQSPRARYGKAQCEDDLAEKRRSNEVLRGAIETYQEVASLPDVPADLLKLSLKRRSDRQQFLGHMRGSLLTLQRLVQLFPNDTSLKNDLGVGYLLIGDNDNAKKVYEEVLSVTPNDGFAKVHYGFILKAQNKIAESIPYLKEGIESGDPGTDDGRFYFHLGDAMQRVGNKEAYKWYELGHKRGHFASVWQRSLYNVNGLKAQPWWTPKETGYTELVKSLERNWKLIRDEGLAVMDKAKGLFLPEDENLREKGDWSQFTLWQQGRRNENACKGAPKTCTLLEKFPETTGCRRGQIKYSIMHPGTHVWPHTGPTNCRLRMHLGLVIPKEGCKIRCANETRTWEEGKVLIFDDSFEHEVWQDASSFRLIFIVDVWHPELTPQQRRSLPAI”, the protein production is reported as “failed”. For “MAQSNSRETFSSRLGFILAAAGAAVGLGNIWGFPTQAASNGGGAFLLVYLILIFVVAFPMLVVEMAIGRYGQANPVDSMRSLTSQPAAKKVGGFVGWVGLSVPSAVLAFYSIVGGWIICFLLGAMTDLFGFTAASAWLKGFSVERNLFGTLIFYVLTILIVQGGVKQGIERWSTRLMPALFVLFAVLFIYIMTQQGAWEGLKHYLIPDFEKVWDRKLILAAMGQGFFSLTIGGCSMLIYGSYLSKKENLPKMAMSVTLVDTAVAFIAGLVVLPAMFVAMNKGVQIYAQDGSLLSSDTLVFTVLPLMFDSLGLLGQIFAMVFFLLLTIAALTSSISMLECPVALVGERFNTRRTPTSWVLGGLIALFSVVIVYNFGALFGLVATLATQYLQPTAALMFCLFGGWVWQRDAKMKELQAGFPELQQSLFGKIWPWYVKFVCPVLVATVIWASFG”, the protein production was “failed”. For “MAQVEAPVIGITVLYFLAIIIIGYYSRQRLKSATDYYVAGRQVGAVVNGLALESTYLSPASMLGLPAYIFILGYPFWWAMSAIIAGMPIATLLTASALRKYAPTSFADYYADRYNDQRLRWLVGIVTVIGAVLYITLSLVGMALFLLAVAKVPYIIGLIVGTIIVMLYVVWGGMIATSWNAAFQAFLMTVAAVIAAAVIVIKLGGLGGFYEAVLANNPKFWNTPSDPEPPHLLSGTWIAVIGWFFVWHYGFATMPYTVVRFFTTMDIKTARRSIFWCTLAAGIFYMALEIIGAASKLMIETGPMGGEGANAVKILQSYMAQYGVGGWTDYSMIAAVEALQNPWVLGILCAGGLAIAMSTAAGWVMVVNTLLTRDWGDMLLKSKFAKEKPVTLARIISVIFLIVGFLVAINPPGLVLDLSGWAFVVIISALGPGLVLGLWWKRATRAAMWTTAIVMTPLHLYAWLKAKLVLGHHAFFFLNDVLFGNAKALITPHQVWAIPVGFLLFIIVSLITKPVEEEAVQKYCVELTKEV”, the protein production was “failed”. For “MAQVNKQAIAAAFGRAASQYEQHASLQQHSADALLTLLTGRQFASVLDAGCGPGRMSRYWRERGSEVTALDLSLPMLQQARDRQAAHHYLLADIEAIPHDAEVFDLAWSNLAVQWCGDLRDALSELYRVVRPGGVVAFTTLCQGSLPELRQAWQAVDNRAHANSFLPEEAIDHALRGWRAFRHTQAMTLWFEDALSAMRSLKGIGATHLHEGRESDVLTRARLRQIQLAWPQRQGKYPLTYHLFMGVIERD”, the protein production was “failed”. With “MARANFEPYGRDFPGGRATGRFCNGRLSSDFTSEAYGLKPTVPAYLDPSYNISDFATGVCFASAGTGYDNSTADVLGVIPLWKEVEYFKEYQSNLSAYLGHRRAAKIIRESLYIVSIGTNDFLENYYTLPDRRSQFSISQYQDFLVEIAEVFLKDIYRLGARKMSFTGISPMGCLPLERVTNLDDPFSCARSYNDLAVDFNGRLRRLVTKLNRELTGIKIYFANPYDIMWDIVTKPNLYGLEISSSACCGTGLFEMGFLCGQDNPLTCSDANKFVFWDAFHPTERTNQIVSDHFFKHLKNLFH” the protein production was “failed”. In the case of “MARAVHRSGLVALGIATALMASCAFAAKDVVVAVGSNFTTLDPYDANDTLSQAVAKSFYQGLFGLDKEMKLKNVLAESYTVSDDGITYTVKLREGIKFQDGTDFNAAAVKANLDRASDPANHLKRYNLYKNIAKTEAIDPTTVKITLKQPFSAFINILAHPATAMISPAALEKYGKEIGFYPVGTGPYELDTWNQTDFVKVKKFAGYWQPGLPKLDSITWRPVADNNTRAAMLQTGEAQFAFPIPYEQATLLEKNKNIELMASPSIMQRYISMNVTQKPFDNPKVREALNYAINRPALVKVAFAGYATPATGVVPPSIAYAQSYKPWPYDPVKARELLKEAGYPNGFSTTLWSSHNHSTAQKVLQFTQQQLAQVGIKAQVTAMDAGQRAAEVEGKGQKESGVRMFYTGWSASTGEADWALSPLFASQNWPPTLFNTAFYSNKQVDDFLAQALKTNDPAEKTRLYKAAQDIIWQESPWIPLVVEKLVSAHSKNLTGFWIMPDTGFSFEDADLQ”, the protein production is reported as “not failed”. With “MARGELPRASISDTIPMTMASIDAGSVRFTARADKRHLNPLGGVHGGFAATVLDSVTGCAIHSILEAGVGYGTVDLSVKRVKAVPEDTPLVAEGRVLHVPCAIGSQRADLMLAPPRLGRDRRCPAGHAPAGAARAACAPQGRLTPMRRPLNAAPAARRCGRTGTDRSRAPGRACAAPWSSAC” the protein production was “failed”. With “MARIRIEAPGTIVYETLMDVRIGDINYANHLGNDALLRIAQEARLRLFRDWGYVDELHIDGVGIVVADAAICYLSEAFLGDVLRILVGTADIHRKGLDFIYQVIDDNSGREVARLKTGIVFFDYPARQVALMPESFSAKLGQLEHHHHHH” the protein production was “not failed”. With “MARLARLGEPFALATVVASSGSSPRKAGAKMLIRGDGSALGTVGGGHVEQDTLAAARASLAEGAPRTLEFVLTEEHGYACGGSMSVFIEPQGRRPLLVMFGAGHVGRAVTALAHGCGFRVIVVDERPEYAVPALLPGADEIVCVPVGAAFARLTLDRESFAVIATPGHVHDFDAVRGCLATEVGFIGLLGSRRKREALMKTLTEEGYEAGRQARVVTPVGLDIGAQTPEEIAVSIVGQLVKLRRQA” the protein production was “failed”. With “MARMKARSGKGRRVARDTWKTKSWYEIRTPQSFGGDLLGTTPANDPSNLLGRVTETSLKDLTNDHSKHMVRLYFKVDGVAGNNATTQFVGHNTTREYLKSLVRRRRSKIVTITDIRTKDGYKIRVKAMVLTAVRARDHHKTDIRKKMEQIIVNMARNSTFPEFVQAMLLGGLGSKIYATCKRIMPMKRVEIYKSEVMEFGKSATPVVEAPAETEVKEEVKKEVVETQTE” the protein production was “failed”. For “MARPAYRLLAYSLWDLIPIAMAVAHFAFVLWLVLDFHALSWWVILPAALLYAVSLSWSINSISHNQIHNAYFTPGWMNRGFDLLLSVTIGFSQTLYRDIHNRHHRGNSDLPDANGKTVDPLSIYLHGKDGQPDNPWAYTFLSFFRDDPKEIYQEMQRKRPDDARWVKVEIGVTVAFYLALALYDWHAVLVLLPFWYLGQSLSSLNGYYEHLGGNPDLPIAWGVSSYSPLYNLIWMNNGYHAEHHYRPKMHWTKVKAFHREIREQQRAAGVKVIPVSHGLGFLVAHRKV”, the protein production was “failed”.
